From article PMC7792996, “Crystal structure of death-associated protein kinase 1 in complex with the dietary compound resveratrol” (IUCrJ, 2021)

Substrate: Nc1ncnc2c1ncn2[C@@H]1O[C@H](COP(=O)(O)OP(=O)(O)OP(=O)(O)O)[C@@H](O)[C@H]1O
Assay: intrinsic ATPase kinetics by malachite green assay (Km)
Type: biochemical, Homo sapiens
Conditions: Mg2+ ([…] MgCl2 in the assay) ATP-binding site

B1: Death-associated protein kinase 1 (DAPK1) (Homo sapiens) (protein)
chain: MTVFRQENVDDYYDTGEELGSGQFAVVKKCREKSTGLQYAAKFIKKRRTKSSRRGVSREDIEREVSILKEIQHPNVITLHEVYENKTDVILILELVAGGELFDFLAEKESLTEEEATEFLKQILNGVYYLHSLQIAHFDLKPENIMLLDRNVPKPRIKIIDFGLAHKIDFGNEFKNIFGTPEFVAPEIVNYEPLGLEADMWSIGVITYILLSGASPFLGDTKQETLANVSAVNYEFEDEYFSNTSALAKDFIRRLLVKDPKKRMTIQDSLQHPWIKPKDTQQALS
notes: catalytic domain, residues 1–285
Km: 21 ± 2.4 µM | kcat: 0.012 ± 8.5e-05 s⁻¹ | kcat/Km: 733 ± 71.7 M⁻¹ s⁻¹
